Experimental data: patent publication US20240141038A1 (SHANGHAI QILU PHARMACEUTICAL RESEARCH AND DEVELOPMENT CENTRE, published 2024)

B1: NKp46-PC4 VHH (his and c-Myc labels) (VHH)
VHH: EVQLVESGGGSVQAGGSLRLSCTVSGYTGTIEYMGWGWFRQAPGKEREGVAYINTGGGTSVYDDSVKGRFTISKDDVNLTVYLQMNSLKPEDTAIYYCATGSFFGIWYKVPATQYFHYWGQGTQVTVSS
notes: IPTG-induced E. coli supernatant used in the screening ELISA; also called NKp46-PC4 clone supernatant; not shown: his and c-Myc labels
B2: NKp46-PA2 VHH (his and c-Myc labels) (VHH)
VHH: DVQLVESGGGLVQAGGSLRLSCAASGRTLSSYAMGWFRQAPGLEREFVAAISRISGDTYSPDSVKGRFTISRDNAKNTLYLQMNSLKPEDTAVYYCAASATPSATNIYTNQYAYGDWGQGTQVTVSS
notes: IPTG-induced E. coli supernatant used in the screening ELISA; also called NKp46-PA2 clone supernatant; not shown: his and c-Myc labels
B3: NKp46-PA31 VHH (his and c-Myc labels) (VHH)
VHH: DVQLVESGGGLVQAGDSLRLSCAVSGRTFSRLPMGWFRQGPGKDREFVAAISWSSSTTYYADSVKGRFFISRDNAKNTAYLQMNNLRLEDTAVYYCAAVGGSLDYSATVVYTAARAYADWGQGTLVTVSS
notes: IPTG-induced E. coli supernatant used in the screening ELISA; also called NKp46-PA31 clone supernatant; not shown: his and c-Myc labels
B4: NKp46-PA63 VHH (his and c-Myc labels) (VHH, not shown: small tags and cut ends)
VHH: EVQLVESGGGLVQPGGSLRLSCAASGRTSTSYAMGWFRQAPGKEREFVAAINRSGDFPYYADSVKGRFTIFRDNAKNTVYLQMSSVKPEDTGVYFCAAAPRAPATQVVISAFGYEYWGQGTQVTVSS
notes: also called NKp46-PA63 clone supernatant
B5: NKp46-PA3 VHH (his and c-Myc labels) (VHH)
VHH: DVQLVESGGGLVQAGGSLRLSCAASGRTFNTIHWFRQAPGKEREFVARIWWIERTTFYAASVKGRFTISRDNAKNMVYLQMNSLKPEDTAVYYCAADARYTGSRRWESDYWGQGTQVTVSS
notes: IPTG-induced E. coli supernatant used in the screening ELISA; also called NKp46-PA3 clone supernatant; not shown: his and c-Myc labels
B6: NKp46-PA22 VHH (his and c-Myc labels) (VHH)
VHH: QVQLVESGGGLVQAGGSLRLSCTASGRTFETLHWFRQAPGKEREFVARIWWIGGATFYADSVKGRFTISRDNAKNMVYLQMNSLKPEDTAIYYCAADARYTSNRRWESDYWGQGTQVTVSS
notes: IPTG-induced E. coli supernatant used in the screening ELISA; also called NKp46-PA22 clone supernatant; not shown: his and c-Myc labels
B7: NKp46-PC13 VHH (his and c-Myc labels) (VHH)
VHH: DVQLVESGGGSVQAGGSLRLSCAASGYTRSIYYMGWFRQAPGKEREGVAVMHTGGGSTYYTDSVKGRFTISQDNAKNTVYLQMNSLKPEDTAMYYCAASKYLLAFGGVEWILRPAGGWDYWAQGTQVTVSS
notes: IPTG-induced E. coli supernatant used in the screening ELISA; also called NKp46-PC13 clone supernatant; not shown: his and c-Myc labels
B8: NKp46-PC1 VHH (his and c-Myc labels) (VHH)
VHH: QVQLVESGGGSVQAGGSLTLSCATSGYTYRTDCMGWFRQAPGKEREGLATIYTSDGRTDYANSVKGRFTISQDNAKNTLYLHMNNLKPEDTAIYYCAADPQYGGVCPSGGWNYWGQGTQVTVSS
notes: IPTG-induced E. coli supernatant used in the screening ELISA; also called NKp46-PC1 clone supernatant; not shown: his and c-Myc labels
B9: NKp46-PC7 VHH (his and c-Myc labels) (VHH)
VHH: EVQLVESGGGSVQAGGSLRLSCAASGYTYRTDCMGWFRQAPGKEREGLATIYTSDGRTAYADSVKGRFTISQDNAKNTLYLDMNTLKPEDTAMYYCAADLQYGGSCPSGGWKYWGQGTLVTVSS
notes: IPTG-induced E. coli supernatant used in the screening ELISA; also called NKp46-PC7 clone supernatant; not shown: his and c-Myc labels
B10: NKp46-PA69 VHH (his and c-Myc labels) (VHH)
VHH: QVQLVESGGGLIQAGGSLRLSCVASERSLTLYAMGWFRQAPGLEREFVAGISRTGDTTYSPDSVKGRFTISRDNAKNVLYLQMNSLKPDDTAVYYCAASATYSATNIYTHQRAYGDWGQGTQVTVSS
notes: IPTG-induced E. coli supernatant used in the screening ELISA; also called NKp46-PA69 clone supernatant; not shown: his and c-Myc labels
B11: NKp46-PA36 VHH (his and c-Myc labels) (VHH)
VHH: QVQLVESGGGLVQAGGSLRLSCAASGRSFSRYAMGWFRQAPGKERDFVAAISSSGDPTYYADSVKGRFTISRVNAKNTVYLQMNSVNPGDTAVYYCAAGLTARDTTVVVHPNGYSYWGQGTQVTVSS
notes: IPTG-induced E. coli supernatant used in the screening ELISA; also called NKp46-PA36 clone supernatant; not shown: his and c-Myc labels
B12: NKp46-PA34 VHH (his and c-Myc labels) (VHH)
VHH: QVQLVESGGGLVQTGGSLRLSCAASGSTSSFYRMGWFRQAPGKEREAVARISSSAGLIYYVDSVKGRFTISRAGAKNTVYLQMNSLKPEDTAVYYCAADRHGTRWDYWGQGTQVTVSS
notes: IPTG-induced E. coli supernatant used in the screening ELISA; also called NKp46-PA34 clone supernatant; not shown: his and c-Myc labels
B13: NKp46-PC16 VHH (his and c-Myc labels) (VHH)
VHH: DVQLVESGGGLVQPGGSLRLSCAISGFTFSIVSMSWVRQAPGKGPERVSWINGDSSNTSYADSVKGRFTISRDNARNMLYLQMNSLKSEDTARYYCTTQNSHYDIRFGYWGQGTQVTVSS
notes: IPTG-induced E. coli supernatant used in the screening ELISA; also called NKp46-PC16 clone supernatant; not shown: his and c-Myc labels
B14: NKp46-PC12 VHH (his and c-Myc labels) (VHH)
VHH: QVQLVESGGGSVQTGGSLRLSCTAPGFTTDSCGMDWYRQAAGKQREWVSRIRPDGRTDYVESVKGRFTISEDKAKYTVYLQMNSLKPEDTAMYSCTTWGLCTAKFRWGQGTQVTVSS
notes: IPTG-induced E. coli supernatant used in the screening ELISA; also called NKp46-PC12 clone supernatant; not shown: his and c-Myc labels
B15: NKp46-PC3 VHH (his and c-Myc labels) (VHH)
VHH: DVQLVESGGGSVEAGGSLRLSCAASGYRQRTMGWFRQAPGKAREGVACIYTGPTTTFTDYADSVKGRFTITQDNAKNTVYLQMNSLKPEDTAMYYCAANLAYPLTIIPDTRWGQGTQVTVSS
notes: IPTG-induced E. coli supernatant used in the screening ELISA; also called NKp46-PC3 clone supernatant; not shown: his and c-Myc labels
B16: NKp46-PC2 VHH (his and c-Myc labels) (VHH)
VHH: QVQLVESGGGLVQPGGSLRLSCAASGFAFSNYNMFWVRQAPGEGFEWISVINRGGDTADYAASVKGRFTISRDNAKNTLYLQMNSLKTEDTAVYYCARDPLGTTRGQGTLVTVSS
notes: IPTG-induced E. coli supernatant used in the screening ELISA; also called NKp46-PC2 clone supernatant; not shown: his and c-Myc labels
B17: NKp46-PA45 VHH (his and c-Myc labels) (VHH)
VHH: QVQLVESGGGLVQAGGSLRLLCAASGRTFSRLPMAWFRQGPGKDREFVAAISWSGGSTYYADSMKGRFTISRDNAKNTAYLQMNSLRLEDTAVYYCAAVGDSAPYSATIVYTDARAYAYWGQGTQVTVSS
notes: IPTG-induced E. coli supernatant used in the screening ELISA; also called NKp46-PA45 clone supernatant; not shown: his and c-Myc labels
B18: NKp46-PC11 VHH (his and c-Myc labels) (VHH)
VHH: DVQLVESGGGSVQAGGSLRLSCAPSPYSANSFSMAWFRQVPGKEREGIACIQAESGSTNVAPSVKGRFSISQDNAKNTLYLQMNNLKPEDTAMYYCAAFKRNVGGCELRPEHWRFWGQGTLVTVSS
notes: IPTG-induced E. coli supernatant used in the screening ELISA; also called NKp46-PC11 clone supernatant; not shown: his and c-Myc labels
B19: NKp46-PC6 VHH (his and c-Myc labels) (VHH)
VHH: DVQLVESGGGSVQAGGSLRLSCAASGYRSRHYCMGWFRQFPGKERERVALINTGGPTTFYADFVEGRFTISLDNAKNTLSLQMNSLKPEDTAMYYCAAGPPSSDSGSGCYVPEYMYNYWGQGTQVTVSS
notes: IPTG-induced E. coli supernatant used in the screening ELISA; also called NKp46-PC6 clone supernatant; not shown: his and c-Myc labels
B20: NKp46-PC8 VHH (his and c-Myc labels) (VHH)
VHH: EVQLVESGGGSVQAGGSLRLSCAVSRGSMASTGCMAWFRQTPGKEREAVAIINISGTTRYTDSVKGRFTIAQDSAKNTLTLQMNSLKPEDTGMYYCAATQNPRTVGRGYCTGDYFQVGGGGYSFWGQGTQVTVSS
notes: IPTG-induced E. coli supernatant used in the screening ELISA; also called NKp46-PC8 clone supernatant; not shown: his and c-Myc labels
B21: NKp46-PC9 VHH (his and c-Myc labels) (VHH)
VHH: QVQLVESGGGSVQAGGSLRLSCAASGYTYRRYCMAWFRQGPGKEREGVACLDRDGSTTYADSVKGRFTISRDNANDTLYLQMNSLKPEDTALYRCAAAQPGDCWGRRYGFNTWGQGTLVTVSS
notes: IPTG-induced E. coli supernatant used in the screening ELISA; also called NKp46-PC9 clone supernatant; not shown: his and c-Myc labels
B22: NKp46-PA40 VHH (his and c-Myc labels) (VHH)
VHH: QVQLVESGGGLVQAGGSLRLSCAASGRTFSRYSMGWFRQAPGKEREFVAAISSSGDVTHYADSAKGRFIISRDNAKNTVSLQVNSVNLEDTAVYYCAASLTARATTVTVHPNGYNYWGQGTQVTVSS
notes: IPTG-induced E. coli supernatant used in the screening ELISA; also called NKp46-PA40 clone supernatant; not shown: his and c-Myc labels

Legend:
[1] = biological target: T1, Human NKp46 antigen for immunization, screening, and testing (Kactus, NKP-HM146) (human, UniProt O76036 22-255); assay: ELISA, coated antigen, VHH supernatant, anti-Myc HRP
T1 construct: Bought protein; also called human NKp46 antigen protein; human NKp46 protein
Description: (§1) In order to obtain positive antibodies that can cross-bind to human NKp46 and cynomolgus monkey NKp46, the above libraries were amplified and added into M13K07 helper phage and assembled into bacteriophages. 1×10¹² pfu of immune camel antibody library and immune alpaca antibody library were added thereto, and the phages were incubated with biotinylated human NKp46 protein (8 μg/mL) bound to magnetic beads for 1 h at room temperature. After washing off the unbound bacteriophages with 0.05% PBST, the phages specifically bound to NKp46 were eluted with […] triethylamine, and after gradient dilution of the bacteriophages above, E. coli SS320 in the logarithmic growth phase were infected. After being cultured overnight at 37° C. on plates containing ampicillin, single-clone was picked for IPTG-induced expression, and the supernatant was used for ELISA assay. ELISA plates were coated with […] human NKp46 antigen or cynomolgus monkey NKp46 antigen overnight at 4° C., then washed 3 times with 0.05% PBST and blocked with 5% skim milk at room temperature for 1 h, and washed 3 times with 0.05% PBST. Then 30 µL of induced supernatant was then added into per well, medium were added to negative control wells, the ELISA plates were incubated at room temperature for 1 h, and finally detected with anti-Myc HRP (VHH with his and c-Myc labels were expressed by the induction of IPTG. Sequence clones that had OD450 values of greater than 1.0 for binding to human NKp46 and cynomolgus monkey NKp46 as determined by ELISA, and of which the ratio of OD450 values to that of negative control were greater than 3 were sequenced, thereby obtaining amino acid sequences of 30 variable regions of heavy chain antibodies disclosed in the present disclosure, as shown in Table 2.

[2] = biological target: T2, Cynomolgus monkey NKp46 for immunization, screening, and testing (Kactus, NKP-CM146) (cynomolgus monkey, UniProt Q95JB9 22-254); assay: as above
T2 construct: Bought protein; also called monkey NKp46 antigen protein; cynomolgus monkey NKp46 antigen
Description: as §1

T2 sequence (Q95JB9 other isoform, or with tags, fused parts or gaps limits assumed): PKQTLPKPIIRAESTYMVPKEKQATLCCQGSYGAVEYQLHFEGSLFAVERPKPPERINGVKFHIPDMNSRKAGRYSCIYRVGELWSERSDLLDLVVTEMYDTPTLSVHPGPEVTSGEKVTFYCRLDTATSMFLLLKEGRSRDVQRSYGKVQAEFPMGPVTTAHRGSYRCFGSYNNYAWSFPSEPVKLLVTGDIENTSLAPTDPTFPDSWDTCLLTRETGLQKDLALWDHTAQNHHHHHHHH
T1 sequence (O76036 other isoform, or with tags, fused parts or gaps limits assumed): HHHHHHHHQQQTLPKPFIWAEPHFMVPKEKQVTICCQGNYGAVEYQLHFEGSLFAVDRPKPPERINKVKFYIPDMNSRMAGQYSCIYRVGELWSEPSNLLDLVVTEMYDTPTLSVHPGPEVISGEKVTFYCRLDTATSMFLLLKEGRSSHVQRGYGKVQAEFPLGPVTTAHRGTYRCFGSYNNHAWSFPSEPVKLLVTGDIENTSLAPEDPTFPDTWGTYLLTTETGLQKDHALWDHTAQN

Binder | OD450 [1] | ratio of OD450 to negative control [1] | OD450 [2] | ratio of OD450 to negative control [2]
B1 | > 1 | > 3 | > 1 | > 3
B2 | > 1 | > 3 | > 1 | > 3
B3 | > 1 | > 3 | > 1 | > 3
B4 | > 1 | > 3 | > 1 | > 3
B5 | > 1 | > 3 | > 1 | > 3
B6 | > 1 | > 3 | > 1 | > 3
B7 | > 1 | > 3 | > 1 | > 3
B8 | > 1 | > 3 | > 1 | > 3
B9 | > 1 | > 3 | > 1 | > 3
B10 | > 1 | > 3 | > 1 | > 3
B11 | > 1 | > 3 | > 1 | > 3
B12 | > 1 | > 3 | > 1 | > 3
B13 | > 1 | > 3 | > 1 | > 3
B14 | > 1 | > 3 | > 1 | > 3
B15 | > 1 | > 3 | > 1 | > 3
B16 | > 1 | > 3 | > 1 | > 3
B17 | > 1 | > 3 | > 1 | > 3
B18 | > 1 | > 3 | > 1 | > 3
B19 | > 1 | > 3 | > 1 | > 3
B20 | > 1 | > 3 | > 1 | > 3
B21 | > 1 | > 3 | > 1 | > 3
B22 | > 1 | > 3 | > 1 | > 3
